*1 amine or outer side, *2 acyl side, *3 side chain or, on linkers, in order; H or OH if unused. [ ]: non-standard residue; d: D form. 3AzaPhe4AcPip = (S)-3-(6-(4-acetylpiperazin-1-yl)pyridin-3-yl)-2-aminopropanoic acid, CC(=O)N1CCN(c2ccc(C[C@H](N[*:1])C(=O)[*:2])cn2)CC1; Pro(trans-4-NH2) = O=C([C@@H]1C[C@@H](N[*:3])CN1[*:1])[*:2]; Bip(4'-COOH) = N[C@@H](Cc1ccc(-c2ccc(C(=O)O)cc2)cc1)C(=O)O; 1Nal(3S-Me) = C[C@@H](c1cccc2ccccc12)[C@H](N)C(=O)O; Phe(4-COOH) = N[C@@H](Cc1ccc(C(=O)O)cc1)C(=O)O; h3Pal(5-CN) = N#Cc1cncc(CC[C@H](N)C(=O)O)c1; 1Nal = N[C@@H](Cc1cccc2ccccc12)C(=O)O; Ala(4-THP) = N[C@@H](CC1CCOCC1)C(=O)O; hTyr = N[C@@H](CCc1ccc(O)cc1)C(=O)O; 4Pal = N[C@@H](Cc1ccncc1)C(=O)O; Orn = NCCC[C@H](N)C(=O)O; dNMeA = CN[C@H](C)C(=O)O; Dap = NC[C@H](N)C(=O)O; Aib = CC(C)(N)C(=O)O
Each binder was assayed against Recombinant human IL-1β (BioLegend 579404) (human, UniProt P01584 117-269) (assay: cell-based or functional assay).

Row | Binder | MRC5 IC50 [nM]
1 | cyclo([Bip(4'-COOH)]W[Phe(4-COOH)]G[Pro(trans-4-NH2)][1Nal(3S-Me)]D[dNMeA]G[Bip(4'-COOH)][1Nal][Dap][Aib][h3Pal(5-CN)]) (SMILES C[C@@H]1C(=O)NCC(=O)N[C@@H](Cc2ccc(-c3ccc(C(=O)O)cc3)cc2)C(=O)N[C@@H](Cc2cccc3ccccc23)C(=O)N[C@@H](CN)C(=O)NC(C)(C)C(=O)N[C@@H](CCc2cncc(C#N)c2)C(=O)N[C@@H](Cc2ccc(-c3ccc(C(=O)O)cc3)cc2)C(=O)N[C@@H](Cc2c[nH]c3ccccc23)C(=O)N[C@@H](Cc2ccc(C(=O)O)cc2)C(=O)NCC(=O)N2C[C@H](N)C[C@H]2C(=O)N[C@@H]([C@@H](C)c2cccc3ccccc23)C(=O)N[C@@H](CC(=O)O)C(=O)N1C) [SEQ ID NO: 18] | 0.0885
2 | cyclo([Bip(4'-COOH)]W[Phe(4-COOH)]G[Pro(trans-4-NH2)][1Nal(3S-Me)]D[dNMeA]G[Bip(4'-COOH)][1Nal]L[Aib]G) (SMILES CC(C)C[C@@H]1NC(=O)[C@H](Cc2cccc3ccccc23)NC(=O)[C@H](Cc2ccc(-c3ccc(C(=O)O)cc3)cc2)NC(=O)CNC(=O)[C@@H](C)N(C)C(=O)[C@H](CC(=O)O)NC(=O)[C@H]([C@@H](C)c2cccc3ccccc23)NC(=O)[C@@H]2C[C@@H](N)CN2C(=O)CNC(=O)[C@H](Cc2ccc(C(=O)O)cc2)NC(=O)[C@H](Cc2c[nH]c3ccccc23)NC(=O)[C@H](Cc2ccc(-c3ccc(C(=O)O)cc3)cc2)NC(=O)CNC(=O)C(C)(C)NC1=O) [SEQ ID NO: 19] | 0.118
3 | cyclo([Bip(4'-COOH)]W[Phe(4-COOH)]G[Pro(trans-4-NH2)][1Nal(3S-Me)]D[dNMeA]G[Bip(4'-COOH)][4Pal][Dap][dA][hTyr]) (SMILES C[C@@H]1C(=O)NCC(=O)N[C@@H](Cc2ccc(-c3ccc(C(=O)O)cc3)cc2)C(=O)N[C@@H](Cc2ccncc2)C(=O)N[C@@H](CN)C(=O)N[C@H](C)C(=O)N[C@@H](CCc2ccc(O)cc2)C(=O)N[C@@H](Cc2ccc(-c3ccc(C(=O)O)cc3)cc2)C(=O)N[C@@H](Cc2c[nH]c3ccccc23)C(=O)N[C@@H](Cc2ccc(C(=O)O)cc2)C(=O)NCC(=O)N2C[C@H](N)C[C@H]2C(=O)N[C@@H]([C@@H](C)c2cccc3ccccc23)C(=O)N[C@@H](CC(=O)O)C(=O)N1C) [SEQ ID NO: 22] | 0.0325
4 | cyclo([Bip(4'-COOH)]W[Phe(4-COOH)]G[Pro(trans-4-NH2)][1Nal(3S-Me)]D[dNMeA]G[Bip(4'-COOH)][4Pal][Dap][dA][h3Pal(5-CN)]) (SMILES C[C@@H]1C(=O)NCC(=O)N[C@@H](Cc2ccc(-c3ccc(C(=O)O)cc3)cc2)C(=O)N[C@@H](Cc2ccncc2)C(=O)N[C@@H](CN)C(=O)N[C@H](C)C(=O)N[C@@H](CCc2cncc(C#N)c2)C(=O)N[C@@H](Cc2ccc(-c3ccc(C(=O)O)cc3)cc2)C(=O)N[C@@H](Cc2c[nH]c3ccccc23)C(=O)N[C@@H](Cc2ccc(C(=O)O)cc2)C(=O)NCC(=O)N2C[C@H](N)C[C@H]2C(=O)N[C@@H]([C@@H](C)c2cccc3ccccc23)C(=O)N[C@@H](CC(=O)O)C(=O)N1C) [SEQ ID NO: 21] | 0.0234
5 | cyclo([Bip(4'-COOH)]W[Phe(4-COOH)]G[Pro(trans-4-NH2)][1Nal(3S-Me)]D[dNMeA]G[Bip(4'-COOH)][Ala(4-THP)][Dap][dA][hTyr]) (SMILES C[C@@H]1C(=O)NCC(=O)N[C@@H](Cc2ccc(-c3ccc(C(=O)O)cc3)cc2)C(=O)N[C@@H](CC2CCOCC2)C(=O)N[C@@H](CN)C(=O)N[C@H](C)C(=O)N[C@@H](CCc2ccc(O)cc2)C(=O)N[C@@H](Cc2ccc(-c3ccc(C(=O)O)cc3)cc2)C(=O)N[C@@H](Cc2c[nH]c3ccccc23)C(=O)N[C@@H](Cc2ccc(C(=O)O)cc2)C(=O)NCC(=O)N2C[C@H](N)C[C@H]2C(=O)N[C@@H]([C@@H](C)c2cccc3ccccc23)C(=O)N[C@@H](CC(=O)O)C(=O)N1C) [SEQ ID NO: 24] | 0.0291

More lines, now with the values ahead:

Row | MRC5 IC50 [nM] | Binder
6 | 0.0542 | cyclo([Bip(4'-COOH)]W[Phe(4-COOH)]G[Pro(trans-4-NH2)][1Nal(3S-Me)]D[dNMeA]G[Bip(4'-COOH)]KL[dA][hTyr]) (SMILES CC(C)C[C@@H]1NC(=O)[C@H](CCCCN)NC(=O)[C@H](Cc2ccc(-c3ccc(C(=O)O)cc3)cc2)NC(=O)CNC(=O)[C@@H](C)N(C)C(=O)[C@H](CC(=O)O)NC(=O)[C@H]([C@@H](C)c2cccc3ccccc23)NC(=O)[C@@H]2C[C@@H](N)CN2C(=O)CNC(=O)[C@H](Cc2ccc(C(=O)O)cc2)NC(=O)[C@H](Cc2c[nH]c3ccccc23)NC(=O)[C@H](Cc2ccc(-c3ccc(C(=O)O)cc3)cc2)NC(=O)[C@H](CCc2ccc(O)cc2)NC(=O)[C@@H](C)NC1=O) [SEQ ID NO: 25]
7 | 0.0112 | cyclo([Bip(4'-COOH)]W[Phe(4-COOH)]G[Pro(trans-4-NH2)][1Nal(3S-Me)]D[dNMeA]G[Bip(4'-COOH)][Ala(4-THP)][Dap][dA][h3Pal(5-CN)]) (SMILES C[C@@H]1C(=O)NCC(=O)N[C@@H](Cc2ccc(-c3ccc(C(=O)O)cc3)cc2)C(=O)N[C@@H](CC2CCOCC2)C(=O)N[C@@H](CN)C(=O)N[C@H](C)C(=O)N[C@@H](CCc2cncc(C#N)c2)C(=O)N[C@@H](Cc2ccc(-c3ccc(C(=O)O)cc3)cc2)C(=O)N[C@@H](Cc2c[nH]c3ccccc23)C(=O)N[C@@H](Cc2ccc(C(=O)O)cc2)C(=O)NCC(=O)N2C[C@H](N)C[C@H]2C(=O)N[C@@H]([C@@H](C)c2cccc3ccccc23)C(=O)N[C@@H](CC(=O)O)C(=O)N1C) [SEQ ID NO: 23]
8 | 0.44 | cyclo([Bip(4'-COOH)]W[Phe(4-COOH)]G[Pro(trans-4-NH2)][1Nal(3S-Me)]D[dNMeA]G[Bip(4'-COOH)][1Nal][Orn][Aib]G) (SMILES C[C@@H]1C(=O)NCC(=O)N[C@@H](Cc2ccc(-c3ccc(C(=O)O)cc3)cc2)C(=O)N[C@@H](Cc2cccc3ccccc23)C(=O)N[C@@H](CCCN)C(=O)NC(C)(C)C(=O)NCC(=O)N[C@@H](Cc2ccc(-c3ccc(C(=O)O)cc3)cc2)C(=O)N[C@@H](Cc2c[nH]c3ccccc23)C(=O)N[C@@H](Cc2ccc(C(=O)O)cc2)C(=O)NCC(=O)N2C[C@H](N)C[C@H]2C(=O)N[C@@H]([C@@H](C)c2cccc3ccccc23)C(=O)N[C@@H](CC(=O)O)C(=O)N1C) [SEQ ID NO: 20]
9 | 0.0217 | cyclo([3AzaPhe4AcPip]W[Phe(4-COOH)]G[Pro(trans-4-NH2)][1Nal(3S-Me)]D[dNMeA]G[Bip(4'-COOH)]KL[dA][h3Pal(5-CN)]) (SMILES CC(=O)N1CCN(c2ccc(C[C@@H]3NC(=O)[C@H](CCc4cncc(C#N)c4)NC(=O)[C@@H](C)NC(=O)[C@H](CC(C)C)NC(=O)[C@H](CCCCN)NC(=O)[C@H](Cc4ccc(-c5ccc(C(=O)O)cc5)cc4)NC(=O)CNC(=O)[C@@H](C)N(C)C(=O)[C@H](CC(=O)O)NC(=O)[C@H]([C@@H](C)c4cccc5ccccc45)NC(=O)[C@@H]4C[C@@H](N)CN4C(=O)CNC(=O)[C@H](Cc4ccc(C(=O)O)cc4)NC(=O)[C@H](Cc4c[nH]c5ccccc45)NC3=O)cn2)CC1) [SEQ ID NO: 2]

From patent US20230406885A1, “CYCLIC PEPTIDES FOR TRAPPING INTERLEUKIN-1 BETA” (MERCK SHARP & DOHME LLC, priority 2022, published 2023)
